Molecular target: the molecule itself
Experiment: cryo-EM structure; T-Ag^131–627 incubated with AMP-PNP in the absence of DNA (apo form); 3D map at 5.6 Å, rigid-body docking of crystal structures of smaller fragments

B1: SV40 large T-Antigen helicase, residues 131-627 (T-Ag^131–627) (domain or fragment)
chain: KVEDPKDFPSELLSFLSHAVFSNRTLACFAIYTTKEKAALLYKKIMEKYSVTFISRHNSYNHNILFFLTPHRHRVSAINNYAQKLCTFSFLICKGVNKEYLMYSALTRDPFSVIEESLPGGLKEHDFNPEEAEETKQVSWKLVTEYAMETKCDDVLLLLGMYLEFQYSFEMCLKCIKKEQPSHYKYHEKHYANAAIFADSKNQKTICQQAVDTVLAKKRVDSLQLTREQMLTNRFNDLLDRMDIMFGSTGSADIEEWMAGVAWLHCLLPKMDSVVYDFLKCMVYNIPKKRYWLFKGPIDSGKTTLAAALLELCGGKALNVNLPLDRLNFELGVAIDQFLVVFEDVKGTGGESRDLPSGQGINNLDNLRDYLDGSVKVNLEKKHLNKRTQIFPPGIVTMNEYSVPKTLQARFVKQIDFRPKDYLKHCLERSEFLLEKRIIQSGIALLLMLIWYRPVAEFAQSIQSRIVEWKERLDKEFSLSVYQKMKFNVAMGIGVLD
notes: Simian Virus 40 large T-Antigen, residues 131-627; lacks the N-terminal DnaJ-homology domain and the extreme C-terminal host-range determination region; holds OBD, ZBD and AAA+ domains; also called J-domain truncated T-Ag; source: expressed in E. coli (details in the SI Appendix)
B1 was tested, and the “stoichiometry N” value was 6.

— paper PMC9894130, “SV40 T-antigen uses a DNA shearing mechanism to initiate origin unwinding” (Proceedings of the National Academy of Sciences of the …, 2022)
